In patent publication US20240327505A1 (published 2024):

Molecular target: SARS-CoV-2 spike receptor-binding domain (RBD) protein (SARS-CoV-2, UniProt P0DTC2 319-541)
Experiment: BLI

B1: AB-009620 (antibody, V domains shown)
VH: QITLKESGPTLVKPTQTLTLTCTFSGFSLSTSGVGVGWIRQPPGKALEWLALIYWDDDKRYSPSLKSRLTITKDTSKNQVVLTMTNMDPVDTATYYCAHHEVATVFDYWGQGTLVTVSS
VL: QSALTQPASVSGSPGQSITISCTGTSSDVGAYNYVSWYQQHPGKAPKLMIYEVSNRPSGVSNRFSGSKSGNTASLTISGLQAEDEADYYCSSYTSSSTVFGGGTKLTVL
  Kd: 5.99 nM
